Laboratory results reported in PMC12416549 (2024).
Numbering of substitutions follows the chain as printed. Names and notes keep the numbering of the source. Values belong to the binder of their own block, whether it stands above or below them.

Biological target: T1, TNFR1 (Homo sapiens, UniProt P19438)
T1 chain: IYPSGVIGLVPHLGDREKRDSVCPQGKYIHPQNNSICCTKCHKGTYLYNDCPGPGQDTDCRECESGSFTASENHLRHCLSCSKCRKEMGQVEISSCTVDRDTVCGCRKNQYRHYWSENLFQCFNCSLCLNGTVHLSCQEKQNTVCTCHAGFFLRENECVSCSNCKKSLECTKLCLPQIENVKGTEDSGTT
Assay: yeast display SC50

apparent Kd (screen): 0.49 nM
B1: A9V (designed binder)
chain: SMEEEVEKVAKEYEKKKKEAIEKHLEKLKAKDKEAAERFLKELEEAAKEYAKDEAKTMSEEEAKRRAKKYKEKVLLSELSEEEQKEIKEAEEKLVRTILKYVEEAAK

apparent Kd (screen): 13.8 nM
B2: A47L (designed binder)
chain: B1 chain with V9A, A47L

apparent Kd (screen): 0.446 nM
B3: T57M (designed binder)
chain: B1 chain with V9A, T57M

apparent Kd (screen): 16.7 nM
B4: K71D (designed binder)
chain: B1 chain with V9A, K71D

apparent Kd (screen): 5.84 nM
B5: E3Y (designed binder)
chain: B1 chain with E3Y, V9A

apparent Kd (screen): 0.446 nM
B6: A10R (designed binder)
chain: B1 chain with V9A, A10R

apparent Kd (screen): 1.54 nM
B7: K8E (designed binder)
chain: B1 chain with K8E, V9A

apparent Kd (screen): 1.69 nM
B8: E83G (designed binder)
chain: B1 chain with V9A, E83G

apparent Kd (screen): 7.07 nM
B9: L76R (designed binder)
chain: B1 chain with V9A, L76R

apparent Kd (screen): 12.5 nM
B10: I87S (designed binder)
chain: B1 chain with V9A, I87S

apparent Kd (screen): 4.83 nM
B11: E14Q (designed binder)
chain: B1 chain with V9A, E14Q

apparent Kd (screen): 4.83 nM
B12: M58T (designed binder)
chain: B1 chain with V9A, M58T

apparent Kd (screen): 2.48 nM
B13: K69N (designed binder)
chain: B1 chain with V9A, K69N

apparent Kd (screen): 4.39 nM
B14: S1F (designed binder)
chain: B1 chain with S1F, V9A

apparent Kd (screen): 0.79 nM
B15: L75I (designed binder)
chain: B1 chain with V9A, L75I

apparent Kd (screen): 0.869 nM
B16: H24S (designed binder)
chain: B1 chain with V9A, H24S

apparent Kd (screen): 0.79 nM
B17: A30R (designed binder)
chain: B1 chain with V9A, A30R

apparent Kd (screen): 0.446 nM
B18: A36D (designed binder)
chain: B1 chain with V9A, A36D

apparent Kd (screen): 0.335 nM
B19: A9R (designed binder)
chain: B1 chain with V9R

apparent Kd (screen): 0.593 nM
B20: A106K (designed binder)
chain: B1 chain with V9A, A106K

apparent Kd (screen): 11.4 nM
B21: A67Q (designed binder)
chain: B1 chain with V9A, A67Q

apparent Kd (screen): 2.73 nM
B22: K17G (designed binder)
chain: B1 chain with V9A, K17G

apparent Kd (screen): 1.69 nM
B23: Y13Q (designed binder)
chain: B1 chain with V9A, Y13Q

apparent Kd (screen): 1.4 nM
B24: K100V (designed binder)
chain: B1 chain with V9A, K100V

apparent Kd (screen): 7.07 nM
B25: K68P (designed binder)
chain: B1 chain with V9A, K68P

apparent Kd (screen): 2.73 nM
B26: E14H (designed binder)
chain: B1 chain with V9A, E14H

apparent Kd (screen): 0.956 nM
B27: K107P (designed binder)
chain: B1 chain with V9A, K107P

apparent Kd (screen): 4.83 nM
B28: E42P (designed binder)
chain: B1 chain with V9A, E42P

apparent Kd (screen): 0.49 nM
B29: K93Q (designed binder)
chain: B1 chain with V9A, K93Q

apparent Kd (screen): 0.653 nM
B30: A105P (designed binder)
chain: B1 chain with V9A, A105P

apparent Kd (screen): 1.4 nM
B31: A35P (designed binder)
chain: B1 chain with V9A, A35P

apparent Kd (screen): 0.718 nM
B32: K8L (designed binder)
chain: B1 chain with K8L, V9A

apparent Kd (screen): 0.956 nM
B33: E44K (designed binder)
chain: B1 chain with V9A, E44K

apparent Kd (screen): 1.4 nM
B34: K8D (designed binder)
chain: B1 chain with K8D, V9A

apparent Kd (screen): 4.83 nM
B35: E78K (designed binder)
chain: B1 chain with V9A, E78K

apparent Kd (screen): 0.446 nM
B36: E82K (designed binder)
chain: B1 chain with V9A, E82K

apparent Kd (screen): 0.446 nM
B37: K85N (designed binder)
chain: B1 chain with V9A, K85N

apparent Kd (screen): 8.56 nM
B38: L25P (designed binder)
chain: B1 chain with V9A, L25P

apparent Kd (screen): 12.5 nM
B39: E92I (designed binder)
chain: B1 chain with V9A, E92I

apparent Kd (screen): 0.405 nM
B40: A20L (designed binder)
chain: B1 chain with V9A, A20L

apparent Kd (screen): 0.49 nM
B41: Y13A (designed binder)
chain: B1 chain with V9A, Y13A

apparent Kd (screen): 1.16 nM
B42: K27L (designed binder)
chain: B1 chain with V9A, K27L

apparent Kd (screen): 0.593 nM
B43: E81H (designed binder)
chain: B1 chain with V9A, E81H

apparent Kd (screen): 1.86 nM
B44: K107H (designed binder)
chain: B1 chain with V9A, K107H

apparent Kd (screen): 0.405 nM
B45: V74D (designed binder)
chain: B1 chain with V9A, V74D

apparent Kd (screen): 2.73 nM
B46: A10M (designed binder)
chain: B1 chain with V9A, A10M

apparent Kd (screen): 2.73 nM
B47: E72H (designed binder)
chain: B1 chain with V9A, E72H

apparent Kd (screen): 0.79 nM
B48: A106G (designed binder)
chain: B1 chain with V9A, A106G

apparent Kd (screen): 0.446 nM
B49: K29G (designed binder)
chain: B1 chain with V9A, K29G

apparent Kd (screen): 0.49 nM
B50: T57V (designed binder)
chain: B1 chain with V9A, T57V

apparent Kd (screen): 2.73 nM
B51: L76N (designed binder)
chain: B1 chain with V9A, L76N

apparent Kd (screen): 2.73 nM
B52: T97V (designed binder)
chain: B1 chain with V9A, T97V

apparent Kd (screen): 7.07 nM
B53: K73L (designed binder)
chain: B1 chain with V9A, K73L

apparent Kd (screen): 0.539 nM
B54: E82V (designed binder)
chain: B1 chain with V9A, E82V

apparent Kd (screen): 2.25 nM
B55: L94G (designed binder)
chain: B1 chain with V9A, L94G

apparent Kd (screen): 12.5 nM
B56: A55P (designed binder)
chain: B1 chain with V9A, A55P

apparent Kd (screen): 12.5 nM
B57: D53I (designed binder)
chain: B1 chain with V9A, D53I

apparent Kd (screen): 2.73 nM
B58: R38S (designed binder)
chain: B1 chain with V9A, R38S

apparent Kd (screen): 0.956 nM
B59: K8C (designed binder)
chain: B1 chain with K8C, V9A
